Test results taken from patent US20120015885A1.

Target: CaMKIV
Assay: cell-based or functional assay

For YGRKKRRQRRRKRPPKLGQIGRSKRVVIEDDR (modifications not checked) [tatCN21], the kinase activity in a kinase panel, 5 µM tatCN21, reduction was 35%.
